System: MS2 coat protein
Test: apparent KD of MS2 coat protein; designed switch direction (-1 OFF switch, 1 ON switch): -1; higher = weaker reporter binding
Procedure, shortened: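 Each step of the titration lasted 0.8–1.5 h at the lowest concentration and 10–20 min at the highest. The protein, SNAP-549-labelled MS2 coat protein, went from 0.7 or 1.5 nM doubling to 3 µM over RNA switches transcribed on Illumina chips by stalled E. coli RNA polymerase. Normalised cluster fluorescence was curve-fitted, and the per-design median over clusters is given as apparent KD.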

[1] = Eterna round: R95, input ligand: microRNA oligo, concentration not stated
[2] = input ligand: microRNA oligo, concentration not stated
[3] = Eterna round: R95, input ligand: FMN 200 uM
[4] = Eterna round: R95, input ligand: none

Row | Sequence | apparent KD of MS2 coat protein (input ligand: FMN 200 uM) [nM] | apparent KD of MS2 coat protein (input ligand: none) [nM] | apparent KD of MS2 coat protein [1] [nM] | apparent KD of MS2 coat protein [2] [nM] | other results
1 | AUUCAUGCAGGAUAUACAUGAGGAUCACCCAUGUUAAUUUCUACAAGGCGGCAUCUAUGUAGAAGGGUAUGAAG [Eternabot (L2) Solution 33] (Eterna round: R97, puzzle: Exclusion 3) | 35.5 | 24.6 |  |  | 
2 | AUUCCCGGUGUUAGGAUAUCCAACGCCCACGCGAUGGAGAAGGGACAUGAGGAUCACCCAUGUAGAGCUGCAUC [Aredan] (puzzle: Brourd's mod of Exclusion 4) |  |  | 11.7 |  | 
3 | AUUCUCUCGGUGAGGAUAUGAGUAACGACGGCAGAUUAGAAGGUACAUGAGGAUCACCCAUGUGUGUUUGGGAU [Eternabot (L1) Solution 75] (Eterna round: R97, puzzle: Brourd's mod of Exclusion 4) | 41.7 | 47.5 |  |  | 
4 | AUUGACUGAGGAUAUUGUGCUGCUGACAUGAGGAUCACCCAUGUAUGUUAACUCGGCCGUCGAGAAGGCAGAAAUG [BotMod 20 - Jieux - Exclusion 5] (Eterna round: R97, puzzle: Exclusion 5) | 22.6 | 28.2 |  |  | 
5 | AUUGAUAUUGAGGAUAUGCUUUUAUUUGUUCUUGCAGAAGGCGAUACAUGAGGAUCACCCAUGUUUAUGGAAGU [JR_E6_Sub089] (puzzle: Exclusion 6) |  |  | 38.9 |  | 
6 | AUUGAUGUUGAGGAUAUGCUUAUAUUUAUACUUGCAGAAGGCGAUACAUGAGGAUCACCCAUGUUCAUGGAAGU [JR_E6_Sub092] (puzzle: Exclusion 6) |  |  | 26.2 |  | 
7 | AUUGAUGUUGAGGAUAUGCUUUUAUUUAUAAUAGCAGAAGGCGAUACAUGAGGAUCACCCAUGUUCAUGGUUUU [JR_E6_Sub096] (puzzle: Exclusion 6) |  |  | 24.5 |  | 
8 | AUUGUAGUUGUGAGGAUAUCGUUGAUUUUUUGAAACGAGAAGGCACAUGAGGAUCACCCAUGUUAGUUGUUGGU [JR_BMOE4_Sub056] (puzzle: Brourd's mod of Exclusion 4) |  |  | 65.4 |  | 
9 | AUUGUAUAGGAAGGAUAUAGAAUAUUAUUUUAACAUGAGGAUCACCCAUGUAACCUUAUGUGUAGCUAGAAGGUCCAUUUGUUA [Title] (Eterna round: R96, puzzle: Exclusion NG 2) |  |  |  | 228 | 
10 | AUUGUAUAGGAAGGAUAUAGAAUAUUAUUUUAACAUGAGGAUCACCCAUGUAACCUUAUGUGUAGCUAGAAGGUCCGUUUAUUA [Title] (Eterna round: R96, puzzle: Exclusion NG 2) |  |  |  | 96.5 | 
11 | AUUGUUUAUGUAGGAUAUGCCUGGCGUGCCUUUGCAGAAGGACAUGAGGAUCACCCAUGUAACAUGAGGCUCACCCUUGUCGCA [salish99_ExNG1_r04_114] (Eterna round: R96, puzzle: Exclusion NG 1) | 147 | 95.5 |  | 81.4 | 
12 | AUUGUUUGAUACCUCUAAUACAUGAGGAUCACCCAUGUUAUCGAGGAUAUGCAUUAGAGUGGAUAGCAGAAGGCGAAGUAAUUG [JR_ExcNG3_Sub029] (Eterna round: R96, puzzle: Exclusion NG 3) | 13.7 | 16.5 |  | 13.4 | 
13 | AUUGUUUUAGGAUAUACAUGAGGAUCACCCAUGUGUGCGAUGCGGAUCGGGAAAGCCUGUAGAAGGAAGACAUG [Eternabot (L1) Solution 74] (Eterna round: R97, puzzle: Exclusion 3) | 33.4 | 30.8 |  |  | 
14 | AUUUAAACAUAGGAUAUCGAAUUUAUUAUUUAACGAGAAGGAUGAACAUGAGGAUCACCCAUGUGGUAUCAUGG [Mat - Exclusion 6 - JL Mod - D25] (puzzle: Exclusion 6) |  |  | 815 |  | apparent KD of MS2 coat protein [3]: 693 nM; apparent KD of MS2 coat protein [4]: 260 nM
15 | AUUUAAUUUAAUAAGAUCACAUGAGGAUCACCCAUGUAUAUAUAGGAUAUCAGCUCGAAUAGAGCUGAGAAGGAUAUAUACUAU [ExNG3/7-B4] (Eterna round: R96, puzzle: Exclusion NG 3) |  |  |  | 276 | 
16 | AUUUAAUUUAAUAAGAUCACAUGAGGAUCACCCAUGUAUAUAUAGGAUAUCAGCUCGAUUAGAGCUGAGAAGGAUAUAUACAUG [ExNG3/8-A1] (Eterna round: R96, puzzle: Exclusion NG 3) | 48.9 | 38.1 |  | 21.6 | 
17 | AUUUAAUUUAAUAAGAUCACAUGAGGAUCACCCAUGUAUAUAUAGGAUAUCAGCUCGAUUAGAGCUGAGAAGGAUAUAUACUAU [ExNG3/7-B1] (Eterna round: R96, puzzle: Exclusion NG 3) |  |  |  | 422 | 
18 | AUUUAAUUUAAUAAGAUCACAUGAGGAUCACCCAUGUAUAUAUAGGAUAUCAGCUCGUGUAGAGCUGAGAAGGAUAUAUACAUG [ExNG3/8-A3] (Eterna round: R96, puzzle: Exclusion NG 3) |  |  |  | 15.4 | 

Row | Sequence | apparent KD of MS2 coat protein (input ligand: FMN 200 uM) [nM] | apparent KD of MS2 coat protein (input ligand: none) [nM] | apparent KD of MS2 coat protein [1] [nM] | apparent KD of MS2 coat protein [2] [nM] | other results
19 | AUUUAAUUUAAUAAGAUCACAUGAGGAUCACCCAUGUAUAUAUAGGAUAUCAGCUCGUUUAGAGCUGAGAAGGAUAUAUACAUG [ExNG3/8-A2] (Eterna round: R96, puzzle: Exclusion NG 3) | 22.6 | 36.6 |  | 20.2 | 
20 | AUUUAAUUUAAUAAGAUCACAUGAGGAUCACCCAUGUAUAUAUAGGAUAUCAGCUCGUUUAGAGCUGAGAAGGAUAUAUACUAU [ExNG3/7-B2] (Eterna round: R96, puzzle: Exclusion NG 3) | 190 | 278 |  | 237 | 
21 | AUUUAGAGAGGAUAUAUAUUGUGAAACAUGAGGAUCACCCAUGUAAUAAUAUGGAUGUAAAUAGAAGGCUCAUUUU [Mat - Exclusion 5 - JL mod - D10] (puzzle: Exclusion 5) |  |  | 37.4 |  | apparent KD of MS2 coat protein [3]: 40.2 nM; apparent KD of MS2 coat protein [4]: 41.8 nM
22 | AUUUAGUCAGGAUAUUAGUAGUAAAUAAAUAAAAUUAUUACUGAGAAGGGACAUGAGGAUCACCCAUGUGUCUA [Salish 062 v8] (Eterna round: R97, puzzle: Exclusion 4) | 44.4 | 24.9 |  |  | 
23 | AUUUAUGGAGGAUAUACUUGAGGAUCACCCAAGUGGAGUCCCUUUUGGGCGGUAAAUAGUAGAAGGCCGUCUUA [jl-ex3-4.48 ViennaUCT mod] (Eterna round: R97, puzzle: Exclusion 3) | 20.9 | 16.3 |  |  | 
24 | AUUUAUGUUGAGGAUAUGCGAAUAAGUAUAGUUGCAGAAGGCGACACAUGAGGAUCACCCAUGUUCAUGGACCC [LRO-Ex6-02] (puzzle: Exclusion 6) |  |  | 81.5 |  | apparent KD of MS2 coat protein [3]: 181 nM; apparent KD of MS2 coat protein [4]: 127 nM
25 | AUUUAUGUUGAGGAUAUGCUAAAAUGUAUAGUUGCAGAAGGCGACACAUGAGGAUCACCCAUGUUCAUGGAAUU [LRO-Ex6-01] (puzzle: Exclusion 6) |  |  | 31.3 |  | 
26 | AUUUGCUCGUCUACUCAAAACAUGAGGAUCACCCAUGUCGGAUUGGAUCCUACCCAGUCAAGACCAUACUCCUCGAC [Eternabot (Original) Solution 39] (Eterna round: R97, puzzle: Sensor, turn-off variant 1) | 342 | 344 |  |  | 
27 | AUUUUAUAUGAAGGAUAUACUUAACAUGAGGAUCACCCAUGUGGUGUUGUGAGUGAGUGAGUUUAGUAGAAGGUCAAGUAUUUU [JMF's solution 55] (Eterna round: R96, puzzle: Exclusion NG 2) | 724 | 396 |  | 284 | 
28 | AUUUUAUAUGAAGGAUAUACUUAACAUGAGGAUCACCCAUGUGGUGUUGUGAGUGAGUGAGUUUAGUAGAAGGUCAAUGAUUUU [JMF's solution 76] (Eterna round: R96, puzzle: Exclusion NG 2) | 828 | 327 |  | 527 | 
29 | AUUUUAUAUGAAGGAUAUACUUAACAUGAGGAUCACCCAUGUGGUGUUGUGAGUGAGUGAGUUUAGUAGAAGGUCAAUUCUUUU [JMF's solution 98] (Eterna round: R96, puzzle: Exclusion NG 2) | 240 | 288 |  | 185 | 
30 | AUUUUGUCAGGAUAUGAUUAGUAGGAUGAGAGUGCUACUACUUAGAAGGGACAUGAGGAUCACCCAUGUAUUCC [Bring Us a Shrubbery-07] (puzzle: Exclusion 4) |  |  | 14.7 |  | 
31 | AUUUUGUCAGGAUAUUGUUAGUUUAGUUGUUUGUAUUAGUUCGAGAAGGGACAUGAGGAUCACCCAUGUGAUUA [Ex4 #73] (Eterna round: R97, puzzle: Exclusion 4) | 148 | 92.2 |  |  | 
32 | AUUUUGUGAGGAUAUUAGUAGUAAAUAAAUAAAAUUAUUACUGAGAAGGCACAUGAGGAUCACCCAUGUUCCUA [Salish 062 v7] (Eterna round: R97, puzzle: Exclusion 4) | 193 | 19 |  |  | 
33 | CAAAACAGAGGAUAUACAUUUCCUCACCGCCAAAUAGCGGAACAUGAGGAUCACCCAUGUAGAAGGCUGGAAAA [Usenqura] (puzzle: Exclusion 2) |  |  | 37.1 |  | apparent KD of MS2 coat protein [3]: 384 nM; apparent KD of MS2 coat protein [4]: 43.4 nM
34 | CAAAAGGAAGGAUAUGCAUCGGGAGGUGCUCAGCAUCAAAUACAUGAGGAUCACCCAUGUAGAAGGUCUGAAAA [Edbile] (puzzle: Exclusion 2) |  |  | 31.5 |  | 
35 | CAAACCAGAGGAUAUGCGCAUAGAUCAGACUUUGUUUCUUAACAUGAGGAUCACCCAUGUAGAAGGCUGUAAAC [Ex2 #74] (Eterna round: R97, puzzle: Exclusion 2) | 12.3 | 13.3 |  |  | 
36 | CAAAGAACAUGAGGAUCACCCAUGUGAACCUUCGUUCGACCUCAGGAUAUCCGCCACCGUCCGCAGGAGAAGGGAGGGAAAAUA [Isinar] (Eterna round: R96, puzzle: Exclusion NG 3) | 138 | 72.8 |  | 64.9 | 
